T1: FLAG_SERPINB14_HiBiT
T1 chain: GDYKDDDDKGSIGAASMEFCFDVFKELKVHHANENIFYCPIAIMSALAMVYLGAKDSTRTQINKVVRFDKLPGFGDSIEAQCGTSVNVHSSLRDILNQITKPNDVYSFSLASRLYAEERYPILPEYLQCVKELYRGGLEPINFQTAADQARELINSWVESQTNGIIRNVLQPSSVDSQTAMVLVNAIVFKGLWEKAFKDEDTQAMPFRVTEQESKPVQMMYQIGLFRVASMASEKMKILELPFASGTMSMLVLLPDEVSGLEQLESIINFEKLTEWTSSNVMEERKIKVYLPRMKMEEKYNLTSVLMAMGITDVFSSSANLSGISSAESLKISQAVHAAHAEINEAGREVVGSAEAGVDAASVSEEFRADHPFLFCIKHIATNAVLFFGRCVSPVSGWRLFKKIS


Target: T1, FLAG_SERPINB14_HiBiT

| Protein | phosphorylation sites detected by LC-MS/MS after co-expression in Pichia pastoris |
| --- | --- |
| Fam20c(M1-R584)_MYC (protein) MKMMLVRRFRVLILMVFLVACALHIALDLLPRLERRGARPSGEPGCSCAQPAAEVAAPGWAQVRGRPGEPPAASSAAGDAGWPNKHTLRILQDFSSDPSSNLSSHSLEKLPPAAEPAERALRGRDPGALRPHDPAHRPLLRDPGPRRSESPPGPGGDASLLARLFEHPLYRVAVPPLTEEDVLFNVNSDTRLSPKAAENPDWPHAGAEGAEFLSPGEAAVDSYPNWLKFHIGINRYELYSRHNPAIEALLHDLSSQRITSVAMKSGGTQLKLIMTFQNYGQALFKPMKQTREQETPPDFFYFSDYERHNAEIAAFHLDRILDFRRVPPVAGRMVNMTKEIRDVTRDKKLWRTFFISPANNICFYGECSYYCSTEHALCGKPDQIEGSLAAFLPDLSLAKRKTWRNPWRRSYHKRKKAEWEVDPDYCEEVKQTPPYDSSHRILDVMDMTIFDFLMGNMDRHHYETFEKFGNETFIIHLDNGRGFGKYSHDELSILVPLQQCCRIRKSTYLRLQLLAKEEYKLSLLMAESLRGDQVAPVLYQPHLEALDRRLRVVLKAVRDCVERNGLHSVVDDDLDTEHRAASAREQKLISEEDL | S69, T76, T92, S99, S165, T202, S206, and S345 |

These proteins were tested against FLAG_TRX_SPP1 (G158-N314)_HiBiT.
Sequence of FLAG_TRX_SPP1 (G158-N314)_HiBiT (chain, as listed by the source): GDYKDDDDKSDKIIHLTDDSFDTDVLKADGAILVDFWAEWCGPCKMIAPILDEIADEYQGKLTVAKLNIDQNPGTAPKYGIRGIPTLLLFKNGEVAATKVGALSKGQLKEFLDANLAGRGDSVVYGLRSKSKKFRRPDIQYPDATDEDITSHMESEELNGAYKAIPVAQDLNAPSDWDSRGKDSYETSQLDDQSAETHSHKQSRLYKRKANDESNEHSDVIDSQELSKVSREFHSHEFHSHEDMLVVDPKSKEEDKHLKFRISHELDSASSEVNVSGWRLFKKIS

| Protein | Phosphorylation |
| --- | --- |
| ScMNN2(M1-S150)_Fam20c(R32-R584)_FLAG (protein) MLLTKRFSKLFKLTFIVLILCGLFVITNKYMDENTSVKEYKEYLDRYVQSYSNKYSSSSDAASADDSTPLRDNDEAGNEKLKSFYNNVFNFLMVDSPKGSTAKQYNEACLLKGDIGDRPDHYKDLYKLSAKELSKCLELSPDEVASLTKSRLERRGARPSGEPGCSCAQPAAEVAAPGWAQVRGRPGEPPAASSAAGDAGWPNKHTLRILQDFSSDPSSNLSSHSLEKLPPAAEPAERALRGRDPGALRPHDPAHRPLLRDPGPRRSESPPGPGGDASLLARLFEHPLYRVAVPPLTEEDVLFNVNSDTRLSPKAAENPDWPHAGAEGAEFLSPGEAAVDSYPNWLKFHIGINRYELYSRHNPAIEALLHDLSSQRITSVAMKSGGTQLKLIMTFQNYGQALFKPMKQTREQETPPDFFYFSDYERHNAEIAAFHLDRILDFRRVPPVAGRMVNMTKEIRDVTRDKKLWRTFFISPANNICFYGECSYYCSTEHALCGKPDQIEGSLAAFLPDLSLAKRKTWRNPWRRSYHKRKKAEWEVDPDYCEEVKQTPPYDSSHRILDVMDMTIFDFLMGNMDRHHYETFEKFGNETFIIHLDNGRGFGKYSHDELSILVPLQQCCRIRKSTYLRLQLLAKEEYKLSLLMAESLRGDQVAPVLYQPHLEALDRRLRVVLKAVRDCVERNGLHSVVDDDLDTEHRAASARDYKDDDDK | Yes |
| Fam20c(M1-R584)_MYC (protein) MKMMLVRRFRVLILMVFLVACALHIALDLLPRLERRGARPSGEPGCSCAQPAAEVAAPGWAQVRGRPGEPPAASSAAGDAGWPNKHTLRILQDFSSDPSSNLSSHSLEKLPPAAEPAERALRGRDPGALRPHDPAHRPLLRDPGPRRSESPPGPGGDASLLARLFEHPLYRVAVPPLTEEDVLFNVNSDTRLSPKAAENPDWPHAGAEGAEFLSPGEAAVDSYPNWLKFHIGINRYELYSRHNPAIEALLHDLSSQRITSVAMKSGGTQLKLIMTFQNYGQALFKPMKQTREQETPPDFFYFSDYERHNAEIAAFHLDRILDFRRVPPVAGRMVNMTKEIRDVTRDKKLWRTFFISPANNICFYGECSYYCSTEHALCGKPDQIEGSLAAFLPDLSLAKRKTWRNPWRRSYHKRKKAEWEVDPDYCEEVKQTPPYDSSHRILDVMDMTIFDFLMGNMDRHHYETFEKFGNETFIIHLDNGRGFGKYSHDELSILVPLQQCCRIRKSTYLRLQLLAKEEYKLSLLMAESLRGDQVAPVLYQPHLEALDRRLRVVLKAVRDCVERNGLHSVVDDDLDTEHRAASAREQKLISEEDL | Yes |
| ScMNN1(M1-A42)_Fam20c(D93-R584)_FLAG (protein) MLALRRFILNQRSLRSCTIPILVGALIIILVLFQLVTHRNDADFSSDPSSNLSSHSLEKLPPAAEPAERALRGRDPGALRPHDPAHRPLLRDPGPRRSESPPGPGGDASLLARLFEHPLYRVAVPPLTEEDVLFNVNSDTRLSPKAAENPDWPHAGAEGAEFLSPGEAAVDSYPNWLKFHIGINRYELYSRHNPAIEALLHDLSSQRITSVAMKSGGTQLKLIMTFQNYGQALFKPMKQTREQETPPDFFYFSDYERHNAEIAAFHLDRILDFRRVPPVAGRMVNMTKEIRDVTRDKKLWRTFFISPANNICFYGECSYYCSTEHALCGKPDQIEGSLAAFLPDLSLAKRKTWRNPWRRSYHKRKKAEWEVDPDYCEEVKQTPPYDSSHRILDVMDMTIFDFLMGNMDRHHYETFEKFGNETFIIHLDNGRGFGKYSHDELSILVPLQQCCRIRKSTYLRLQLLAKEEYKLSLLMAESLRGDQVAPVLYQPHLEALDRRLRVVLKAVRDCVERNGLHSVVDDDLDTEHRAASARDYKDDDDK | Yes |
| ScMNN2(M1-P97)_Fam20c(R32-R584)_FLAG (protein) MLLTKRFSKLFKLTFIVLILCGLFVITNKYMDENTSVKEYKEYLDRYVQSYSNKYSSSSDAASADDSTPLRDNDEAGNEKLKSFYNNVFNFLMVDSPRLERRGARPSGEPGCSCAQPAAEVAAPGWAQVRGRPGEPPAASSAAGDAGWPNKHTLRILQDFSSDPSSNLSSHSLEKLPPAAEPAERALRGRDPGALRPHDPAHRPLLRDPGPRRSESPPGPGGDASLLARLFEHPLYRVAVPPLTEEDVLFNVNSDTRLSPKAAENPDWPHAGAEGAEFLSPGEAAVDSYPNWLKFHIGINRYELYSRHNPAIEALLHDLSSQRITSVAMKSGGTQLKLIMTFQNYGQALFKPMKQTREQETPPDFFYFSDYERHNAEIAAFHLDRILDFRRVPPVAGRMVNMTKEIRDVTRDKKLWRTFFISPANNICFYGECSYYCSTEHALCGKPDQIEGSLAAFLPDLSLAKRKTWRNPWRRSYHKRKKAEWEVDPDYCEEVKQTPPYDSSHRILDVMDMTIFDFLMGNMDRHHYETFEKFGNETFIIHLDNGRGFGKYSHDELSILVPLQQCCRIRKSTYLRLQLLAKEEYKLSLLMAESLRGDQVAPVLYQPHLEALDRRLRVVLKAVRDCVERNGLHSVVDDDLDTEHRAASARDYKDDDDK | Yes |
| ScKRE2(M1-S80)_Fam20c(D93-R584)_FLAG (protein) MALFLSKRLLRFTVIAGAVIVLLLTLNSNSRTQQYIPSSISAAFDFTSGSISPEQQVISEENDAKKLEQSALNSEASEDSDFSSDPSSNLSSHSLEKLPPAAEPAERALRGRDPGALRPHDPAHRPLLRDPGPRRSESPPGPGGDASLLARLFEHPLYRVAVPPLTEEDVLFNVNSDTRLSPKAAENPDWPHAGAEGAEFLSPGEAAVDSYPNWLKFHIGINRYELYSRHNPAIEALLHDLSSQRITSVAMKSGGTQLKLIMTFQNYGQALFKPMKQTREQETPPDFFYFSDYERHNAEIAAFHLDRILDFRRVPPVAGRMVNMTKEIRDVTRDKKLWRTFFISPANNICFYGECSYYCSTEHALCGKPDQIEGSLAAFLPDLSLAKRKTWRNPWRRSYHKRKKAEWEVDPDYCEEVKQTPPYDSSHRILDVMDMTIFDFLMGNMDRHHYETFEKFGNETFIIHLDNGRGFGKYSHDELSILVPLQQCCRIRKSTYLRLQLLAKEEYKLSLLMAESLRGDQVAPVLYQPHLEALDRRLRVVLKAVRDCVERNGLHSVVDDDLDTEHRAASARDYKDDDDK | Yes |
| ScMNN6(M1-P30)_Fam20c(R32-R584)_FLAG (protein) RLERRGARPSGEPGCSCAQPAAEVAAPGWAQVRGRPGEPPAASSAAGDAGWPNKHTLRILQDFSSDPSSNLSSHSLEKLPPAAEPAERALRGRDPGALRPHDPAHRPLLRDPGPRRSESPPGPGGDASLLARLFEHPLYRVAVPPLTEEDVLFNVNSDTRLSPKAAENPDWPHAGAEGAEFLSPGEAAVDSYPNWLKFHIGINRYELYSRHNPAIEALLHDLSSQRITSVAMKSGGTQLKLIMTFQNYGQALFKPMKQTREQETPPDFFYFSDYERHNAEIAAFHLDRILDFRRVPPVAGRMVNMTKEIRDVTRDKKLWRTFFISPANNICFYGECSYYCSTEHALCGKPDQIEGSLAAFLPDLSLAKRKTWRNPWRRSYHKRKKAEWEVDPDYCEEVKQTPPYDSSHRILDVMDMTIFDFLMGNMDRHHYETFEKFGNETFIIHLDNGRGFGKYSHDELSILVPLQQCCRIRKSTYLRLQLLAKEEYKLSLLMAESLRGDQVAPVLYQPHLEALDRRLRVVLKAVRDCVERNGLHSVVDDDLDTEHRAASARDYKDDDDK | Yes |
| ScMNN2(M1-S36)_Fam20c(R32-R584)_FLAG (protein) MLLTKRFSKLFKLTFIVLILCGLFVITNKYMDENTSRLERRGARPSGEPGCSCAQPAAEVAAPGWAQVRGRPGEPPAASSAAGDAGWPNKHTLRILQDFSSDPSSNLSSHSLEKLPPAAEPAERALRGRDPGALRPHDPAHRPLLRDPGPRRSESPPGPGGDASLLARLFEHPLYRVAVPPLTEEDVLFNVNSDTRLSPKAAENPDWPHAGAEGAEFLSPGEAAVDSYPNWLKFHIGINRYELYSRHNPAIEALLHDLSSQRITSVAMKSGGTQLKLIMTFQNYGQALFKPMKQTREQETPPDFFYFSDYERHNAEIAAFHLDRILDFRRVPPVAGRMVNMTKEIRDVTRDKKLWRTFFISPANNICFYGECSYYCSTEHALCGKPDQIEGSLAAFLPDLSLAKRKTWRNPWRRSYHKRKKAEWEVDPDYCEEVKQTPPYDSSHRILDVMDMTIFDFLMGNMDRHHYETFEKFGNETFIIHLDNGRGFGKYSHDELSILVPLQQCCRIRKSTYLRLQLLAKEEYKLSLLMAESLRGDQVAPVLYQPHLEALDRRLRVVLKAVRDCVERNGLHSVVDDDLDTEHRAASARDYKDDDDK | Yes |
| ScKRE(M1-I58)_Fam20c(R32-R584)_FLAG (protein) MALFLSKRLLRFTVIAGAVIVLLLTLNSNSRTQQYIPSSISAAFDFTSGSISPEQQVIRLERRGARPSGEPGCSCAQPAAEVAAPGWAQVRGRPGEPPAASSAAGDAGWPNKHTLRILQDFSSDPSSNLSSHSLEKLPPAAEPAERALRGRDPGALRPHDPAHRPLLRDPGPRRSESPPGPGGDASLLARLFEHPLYRVAVPPLTEEDVLFNVNSDTRLSPKAAENPDWPHAGAEGAEFLSPGEAAVDSYPNWLKFHIGINRYELYSRHNPAIEALLHDLSSQRITSVAMKSGGTQLKLIMTFQNYGQALFKPMKQTREQETPPDFFYFSDYERHNAEIAAFHLDRILDFRRVPPVAGRMVNMTKEIRDVTRDKKLWRTFFISPANNICFYGECSYYCSTEHALCGKPDQIEGSLAAFLPDLSLAKRKTWRNPWRRSYHKRKKAEWEVDPDYCEEVKQTPPYDSSHRILDVMDMTIFDFLMGNMDRHHYETFEKFGNETFIIHLDNGRGFGKYSHDELSILVPLQQCCRIRKSTYLRLQLLAKEEYKLSLLMAESLRGDQVAPVLYQPHLEALDRRLRVVLKAVRDCVERNGLHSVVDDDLDTEHRAASARDYKDDDDK | Yes |

— patent publication US20260176314
